Legend:
[1] = Native MS of purified individual proteins (oligomeric state); assay type: physicochemical; settings: Pex5p 7.5 µM, Pcs60p 5 µM; 200 mM ammonium acetate pH 6.8
Procedure: Recombinantly expressed Pex5p variants and Pcs60p protein solutions were buffer-exchanged into 200 mM ammonium acetate pH 6.8 at 4 °C using microcentrifuge gel filtration columns Bio-Spin 6 (Bio-Rad Laboratories). Protein concentration was determined spectrophotometrically using a Nanodrop 2000c (Thermo Scientific) by measuring absorption at 280 nm. Proteins were either analyzed individually or as mixture of Pex5p variant with Pcs60p at indicated concentrations to study receptor-cargo complex formation. For this, Pex5p^WT or Pex5p^2D mutant was incubated with Pcs60p for 5 min on ice. Spectra were obtained using a Synapt HDMS (Waters and MS Vision) equipped with an m/z 32,000 range quadrupole by introducing 3 µl sample with an in-house manufactured gold-coated capillary needle (Brosilicate Thin Wall with Filament Clark Capillary Glass, OD 1.0 mm, ID 0.78 mm; Harvard Apparatus). […]
Spectra were calibrated externally using cesium iodide. […] Quantification of complex abundances was performed based on area under signals using a similar approach as previously described ([Danquah et al. 2019]; [Yefremova et al. 2017]). To compare stabilities of receptor-cargo complexes for Pex5p^WT and Pex5p^2D the collisional activation was quantified by calculating center-of-mass energies (E com) based on the abundance-weighted mean charge states of the 1:1 complex for each acceleration voltage. […]

organellar pellet = test: Distribution of Pex5p variants between cytosolic fraction and organellar pellet; assay type: cell-based, S. cerevisiae; settings: postnuclear supernatants of oleate-grown cells; immunoblot; n = 3
Procedure: Spheroplasting of yeast cells, homogenization, preparation of postnuclear supernatants and generation of cytosolic fractions and organellar pellets by centrifugation (25,000 g for 15 min at 4 °C) were performed as described previously ([Erdmann et al. 1989]).
Immunoblot analyses were performed according to standard procedures. Polyclonal rabbit antibodies used were raised against Pex5p ([Albertini et al. 1997]), Pex14p ([Girzalsky et al. 1999]), Pex13p ([Girzalsky et al. 1999]) and Pex17p ([Huhse et al. 1998]). To detect GFP, monoclonal mouse antibodies (Sigma-Aldrich/Merck or Roche Diagnostics, Germany) were used. Immuno-reactive complexes were visualized either using the IRDye 800CW goat anti-mouse IgG or IRDye 680RD goat anti-rabbit secondary antibody (Li-COR Biosciences, Bad Homburg, Germany) followed by detection with an ‘Infrarot Imaging System’ (Li-COR Biosciences) or using horseradish-peroxidase coupled anti-rabbit or anti-mouse antibodies (Sigma-Aldrich/Merck, Germany) and subsequent detection of chemiluminescence signals with a ChemoCam Camera system (INTAS Science instruments GmbH, Göttingen, Germany). Quantification of immunoblot signals (Supplementary Figure 1E; n = 3) was performed using the software Image Studio Lite (LI-COR Biosciences).

B1: Pex5p^WT: Pex5p wildtype, PTS1 receptor of S. cerevisiae (protein)
chain: MDVGSCSVGNNPLAQLHKHTQQNKSLQFNQKNNGRLNESPLQGTNKPGISEAFISNVNAISQENMANMQRFINGEPLIDDKRRMEIGPSSGRLPPFSNVHSLQTSANPTQIKGVNDISHWSQEFQGSNSIQNRNADTGNSEKAWQRGSTTASSRFQYPNTMMNNYAYASMNSLSGSRLQSPAFMNQQQSGRSKEGVNEQEQQPWTDQFEKLEKEVSENLDINDEIEKEENVSEVEQNKPETVEKEEGVYGDQYQSDFQEVWDSIHKDAEEVLPSELVNDDLNLGEDYLKYLGGRVNGNIEYAFQSNNEYFNNPNAYKIGCLLMENGAKLSEAALAFEAAVKEKPDHVDAWLRLGLVQTQNEKELNGISALEECLKLDPKNLEAMKTLAISYINEGYDMSAFTMLDKWAETKYPEIWSRIKQQDDKFQKEKGFTHIDMNAHITKQFLQLANNLSTIDPEIQLCLGLLFYTKDDFDKTIDCFESALRVNPNDELMWNRLGASLANSNRSEEAIQAYHRALQLKPSFVRARYNLAVSSMNIGCFKEAAGYLLSVLSMHEVNTNNKKGDVGSLLNTYNDTVIETLKRVFIAMNRDDLLQEVKPGMDLKRFKGEFSF
modifications: left off: His6, N-terminal, state not stated
notes: Pex5p wildtype, PTS1 receptor of S. cerevisiae
oligomeric state in native MS [1]: mainly detected in a monomeric state | distribution between cytosolic fraction and organellar pellet (membrane binding) (organellar pellet): no detectable difference

— article PMC9929924, “Phosphorylation of the receptor protein Pex5p modulates import of proteins into peroxisomes” (Biological Chemistry, 2022)
